In patent US20180140679A1, “MODULATION OF AXL RECEPTOR ACTIVITY IN COMBINATION WITH CYTOREDUCTIVE THERAPY” (THE BOARD OF TRUSTEES OF THE LELAND STANFORD JUNIOR …, priority 2016, published 2018):

Columns and labels:
free, circulating Gas6 [1] = biological target: T1, free, circulating Gas6 (Mus musculus, UniProt Q61592); test: In vivo Gas6 serum ELISA (sequestration of endogenous Gas6); conditions: single 0.5 mg/kg dose via tail vein, up to 36 hours
T1 construct: from tissue; host or cells: mouse serum (nude nu/nu mice)
T1 sequence (Q61592 28-674): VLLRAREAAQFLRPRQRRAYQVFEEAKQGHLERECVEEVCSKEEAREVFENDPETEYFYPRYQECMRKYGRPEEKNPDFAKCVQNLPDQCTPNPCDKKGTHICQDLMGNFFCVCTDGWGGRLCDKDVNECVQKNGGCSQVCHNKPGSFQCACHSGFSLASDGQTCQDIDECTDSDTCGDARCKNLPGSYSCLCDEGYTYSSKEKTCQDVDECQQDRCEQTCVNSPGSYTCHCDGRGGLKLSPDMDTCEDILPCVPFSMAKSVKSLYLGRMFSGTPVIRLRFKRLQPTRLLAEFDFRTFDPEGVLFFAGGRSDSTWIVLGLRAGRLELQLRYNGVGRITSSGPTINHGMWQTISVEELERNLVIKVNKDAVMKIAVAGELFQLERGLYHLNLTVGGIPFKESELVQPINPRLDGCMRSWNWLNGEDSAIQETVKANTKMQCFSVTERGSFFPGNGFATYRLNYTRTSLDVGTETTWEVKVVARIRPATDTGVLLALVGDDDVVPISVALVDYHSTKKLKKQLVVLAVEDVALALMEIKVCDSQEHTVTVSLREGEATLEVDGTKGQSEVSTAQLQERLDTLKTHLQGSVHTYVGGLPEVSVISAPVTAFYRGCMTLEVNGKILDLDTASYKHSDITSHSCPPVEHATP
Method: The amount of free, circulating Gas6 (i.e. not neutralized by the decoy receptor) was then quantified.
All doses were formulated in a 200 μl volume. Two mice were analyzed per condition and untreated mice were used to determine baseline Gas6 levels. At 2, 12, 24, and 36 h post-administration, retro-orbital bleeds were performed to obtain blood samples from which serum was isolated and free Gas6 was measured as previously described. The amount of free Gas6 in each sample was determined using a sandwich ELISA. In this assay, MYD1 Fc was used as a capture reagent in order to ensure the detection of free, unbound Gas6, and not Gas6/Axl Fc complexes. Detection of Gas6 was carried out using a biotinylated polyclonal anti-mouse Gas6 antibody (BAF986, R&D Systems, INC., Minneapolis, Minn.) and streptavidin HRP (#4800-30-06 Trevigen Inc., Gaithersburg, Md.).

human Gas6 = biological target: T2, human Gas6 (Homo sapiens, UniProt Q14393); test: Kinetic Exclusion Assay (KinExA), Gas6-Axl binding, human Gas6
T2 sequence (Q14393 31-678): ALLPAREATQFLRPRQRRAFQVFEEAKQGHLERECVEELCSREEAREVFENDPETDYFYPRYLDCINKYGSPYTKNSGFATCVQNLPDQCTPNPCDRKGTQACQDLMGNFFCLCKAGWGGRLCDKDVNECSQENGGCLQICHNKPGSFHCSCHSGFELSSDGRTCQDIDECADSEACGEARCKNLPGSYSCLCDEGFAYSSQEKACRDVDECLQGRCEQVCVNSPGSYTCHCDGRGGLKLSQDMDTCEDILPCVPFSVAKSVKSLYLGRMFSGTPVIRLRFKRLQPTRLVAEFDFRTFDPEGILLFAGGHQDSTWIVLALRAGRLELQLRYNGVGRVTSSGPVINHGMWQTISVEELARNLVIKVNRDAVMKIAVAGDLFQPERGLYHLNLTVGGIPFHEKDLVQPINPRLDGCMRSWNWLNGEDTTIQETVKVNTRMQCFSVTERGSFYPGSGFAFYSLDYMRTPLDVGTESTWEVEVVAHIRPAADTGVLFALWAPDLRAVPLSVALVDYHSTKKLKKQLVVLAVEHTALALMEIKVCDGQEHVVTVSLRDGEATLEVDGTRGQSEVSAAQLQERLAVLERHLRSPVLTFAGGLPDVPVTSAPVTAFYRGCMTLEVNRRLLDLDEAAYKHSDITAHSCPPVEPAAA
Method: Equilibrium binding and association rate constants for all Gas6-Axl interactions were measured on a KinExA3200 instrument (Sapidyne Instruments Inc. Boise, Id.) as previously described. For equilibrium binding studies, three independent titrations were completed for each Axl Ig1 or Axl Fc fusion unless otherwise noted. […] After the appropriate incubation time, reactions were flowed over MYD1 Fc coated beads and captured free Gas6 was probed using an anti-6×HIS Dylight 649 antibody (#200-343-382, Rockland Immunochemicals Inc., Pottstown, Pa.). Each sample was measured twice and data from the three independent equilibrium binding experiments were globally analyzed using n-curve analysis in the KinExA Pro 3.6.2 software (Sapidyne Instruments Inc. Boise, Id.) to obtain the Kd value. To analyze the association rate of the interactions, the direct inject method was used. For these experiments, 1 μM Axl was serially diluted 1:2.5, and equal volumes of each Axl sample and 500 nM Gas6 were briefly mixed and flowed over the capture beads. Free Gas6 was detected as described and the data was fit using the KinExA Pro 3.6.2 software to obtain the association rate (kon) of the interaction. The dissociation rate (koff) was calculated as the product of the Kd and the kon.

free, circulating Gas6 [2] = biological target: T1, free, circulating Gas6; conditions: as previously determined using the same assay; cited from earlier work
[3] = test system: Axl and FLT3 phosphorylation in AML cells; test: Western blot of Axl and FLT3 phosphorylation in AML cells; assay type: cell-based, human
Source text: Cell lysates subjected to sodium dodecyl sulfate polyacrylamide gel electrophoresis followed by transfer to nitrocellulose membrane. The membranes were then probed with primary antibodies against total Axl (AF154, R&D Systems, INC., Minneapolis, Minn.), phospho-Axl (T702; #5724, CST, Danvers, Mass.), total Akt (#4691 CST, Danvers, Mass.), phosphor-Akt (#4060, CST, Danvers, Mass.), anti-MERTK (#ab52968, Abcam, Cambridge, Mass.), phospho-MERTK (#ab14921 Abcam, Cambridge, Mass.), anti-Tyro3 (#5585, CST, Danvers, Mass.), phospho-Tyro3 (#orb186274, Biorbyt LLC, Berkely, Calif.), Bcl-2 Family Antibody Sampler Kit (#9934, CST, Danvers, Mass.), anti-Chk2 (#sc-5278, Santa Cruz Biotech, INC., Santa Cruz, Calif.), anti-XRCC1 (#2735, CST, Danvers, Mass.), anti-γH2AX (Merck Millipore #05636, Darmstadt, Germany), anti-phospho-ATM (#ab81292, Abcam, Cambridge, Mass.), anti-ATM (#ab78, Abcam, Cambridge, Mass.), anti phospho-ATR (#2853, CST, Danvers, Mass.), anti-ATR (#2790, CST, Danvers, Mass.), anti-Phospho Chk1 (#12302, CST, Danvers, Mass.), anti-Phospho Chk2 (#2197, CST, Danvers, Mass.) and anti-RPA32 (#2208, CST, Danvers, Mass.) at 4° C. overnight. The blots were then washed and probed with HRP conjugated anti-goat (#sc-2020, Santa Cruz Biotech, INC., Santa Cruz, Calif.), or HRP conjugated anti-rabbit (#A16110, Thermo Fisher Scientific, Walthan, Mass.) as appropriate. The blots were developed with Bio-Rad Western C developing reagent (#170-5060 Bio-Rad, Hercules, Calif.) and visualized with Chemidoc digital imager (#1708280, Bio-Rad, Hercules, Calif.).

B1: MYD1 Fc: Fc fusion of the first generation Axl decoy receptor MYD1 (protein)
chain: APRGTQAEESPFVSNPGNITGARGLTGTLRCQLQVQGEPPEVHWLRDGQILELADSTQTQVPLGEDEQGDWIVASQLRITSLQLSDTGQYQCLVFLGHQTFVSQPGYVRLEGLPYFLEEPEDRTVAANTPFNLSCQAQGPPEPVDLLWLQDAVPLATAPGHGPQRSLHVPGLNKTSSFSCEAHNAKGVTTSRTATITVLPQQPRNLHLVSRQPTELEVAWTPGLSGIYPLTHCTLQAVLSNDGMGIQAGEPDPPEEPLTSQASVPPHQLRLGSLHPHTPYHIRVACTSSQGPSSWTHWLPVETPEGVPLGPPENISATRNGSQAFVHWQEPRAPLQGTLLGYRLAYQGQDTPEVLMDIGLRQEVTLELQGDGSVSNLTVCVAAYTAAGDGPWSLPVPLEAWRPGQAQPVHQLVKEPSTPAFS
modifications: left off: a dimerising Fc or GST
free, circulating Gas6 in serum (free, circulating Gas6 [1]): rapidly eliminated free Gas6 upon administration
koff (human Gas6; calculated as the product of the Kd and the kon): 1.0 10^−5 s^−1
kon (human Gas6; direct inject method): 2.3 10^7 M^−1 s^−1
in vivo IC50 (free, circulating Gas6 [2]): 0.5 mg/kg
Axl and FLT3 phosphorylation [3]: inhibited Axl and FLT3 phosphorylation
